Experimental data as given in patent US20060134122A1, “Peptides of syndecan-1 for inhibition of cancer” (priority 2004, published 2006).

Tests used:
[1] = tested on: B82L fibroblasts; experiment: B82L cell attachment and spreading; format: cell-based, mouse; settings: for cell attachment and spreading on VN: 5 μg/mL VN, S1ED 1-30 μM, GST and GST-mS4ED 30 μM
Text: FIGS. 11A-F—Downregulation of mouse Sdc-1 expression by siRNA blocks αvβ5-dependent cell attachment and spreading on VN. FACS analysis for (FIG. 11A) mouse syndecan-1 (mAb 281.2), (FIG. 11B) αv integrin subunit (mAb H9.2B8), (FIG. 11C) mouse Syndecan-4 (mAb KY8.2), (FIG. 11D) human syndecan-1 (mAb B-B4) and (FIG. 11E) FcR^ecto-hS1 chimera (FITC-conjugated hIgG) expression against isotype IgG controls (red-fill) in vector^NEO (FIGS. 11A-C), human syndecan-1 (FIG. 11D) and FcR^ecto-hS1 (FIG. 11E) expressing B82L cells 48 h after transfection with either 600 nM control (Control) or mouse syndecan-1-specific siRNA (siRNA). (FIG. 11F) B82L^NEO empty vector-transfected control cells and B82L cells expressing human syndecan-1 or the FcR^ecto-hS1 chimera were transfected with control or mouse syndecan-1-specific siRNA and seeded on wells coated with either 5 μg/mL VN alone or a mixed substratum of VN plus 60 μg/mL of antibody directed against mouse syndecan-1 (281.2), human syndecan-1 (B-B4) or the FcR^ecto-hS1 chimera (hIgG). Cells were incubated at 37° C. for 2 h, fixed, and stained with rhodamine-conjugated phalloidin.
FIGS. 12A-B—B82L cell spreading on VN is blocked by recombinant Scd-1ED. (FIG. 12A) B82L fibroblasts were plated on 5 μg/mL VN in the absence of other treatment, or in the presence of 30 μM GST, 1-30 μM GST-mS1ED or 30 μM GST-mS4ED (inset), then fixed and stained with rhodamine-phalloidin for visualization. (FIG. 12B) Quantification of cell adhesion in triplicate samples (±S.E.) plated either with no additions, or concentrations of GST-mS1ED ranging from 0-30 μM. […]
The failure of NEO cells to engage the mixed substratum is indicative of the efficient blockade of mouse Sdc-1 expression by the siRNA. It is unlikely that the mouse Sdc-1-siRNA treatment has any non-specific cellular effects since spreading on VN is specifically rescued by the expression of full-length human Sdc-1 (hS1, FIG. 11F). Spreading of the B82L-hS1 cells is indistinguishable from parental cells. However, spreading on VN is not recovered in cells expressing the FcR^ecto-hS1 chimera—a construct in which the syndecan's ectodomain is replaced by the ectodomain of the human Fcγ receptor Ia (FcR^ecto-hS1)—regardless of whether the cells are plated on VN alone, or VN supplemented with 60 μg/mL of hIgG to engage the FcR^ecto-hS1 construct.
Recombinant Sdc-1 ectodomain competitively blocks αvβ5 integin activity. To test whether soluble Sdc-1 ectodomain will compete with the syndecan activation of the αvβ5 integrin, B82L cells were plated on 5 μg/mL VN in the presence of a recombinant GST fusion protein containing either the ectodomain of mouse Sdc-1 (GST-mS1ED) or human Sdc-1 (GST-hS1ED; data not shown).

[2] = target: αvβ3 integrin (human, on MDA-MB-231, MDA-MB-435, HAEC and HMEC cells) (human) (UniProt P06756); experiment: cell-based or functional assay
[3] = target: T1, αvβ3 integrin (Homo sapiens, UniProt P05106+P06756); experiment: WOW1 Fab binding (activated αvβ3 integrin), MDA-MB-435; format: cell-based; settings: cells adherent to mAb B-B4; 20 μM GST-mS1ED
T1 construct: endogenous in cells; host or cells: MDA-MB-435 (A4) and MDA-MB-231 (A5) human mammary carcinoma cells
Method: FIGS. 2A-C—Sdc-1 adhesion-mediated cell spreading correlates with αvβ3 integrin. expression and activity. (FIG. 2A) FACS analysis of αvβ3 integrin expression (mAb LM609) in human mammary carcinoma cells against an IgG isotype control. (FIG. 2B) Depicted on split panels are phalloidin-stained MDA-MB-435 (upper half) and MCF-7 (lower half) cells 2 h after plating on wells coated with mAb B-B4 in plating medium alone or medium containing either 30 μg/mL mAb LM609, 1 μg/mL mAb 13 or 20 μM GST-mS1ED. Bar, 50 μm. (FIG. 2C) Untreated MDA-MB-435, MDA-MB-231 and MCF-7 cells (columns 1 and 4) and cells pretreated in suspension with 1 μg/mL mAb 13 (columns 2 and 3) were seeded on wells coated with either mAb B-B4 or COL I in plating medium alone (columns 1, 2 and 4) or medium containing 20 μM GST-mS1ED (column 3). Cells were incubated at 37° C. for 2 h, fixed, permeabilized and stained with WOW1 and an Alexa 488-conjugated secondary. Panel insets are corresponding phase contrast pictures. Bar, 20 μm.
To verify that cell spreading induced upon Sdc-1 ligation correlates with αvβ3activation, the inventors relied upon binding of the ligand-mimetic WOW1 mouse Fab—a probe that detects activated, but unligated αvβ3 integrin. MDA-MB-435 cells adherent to mAb B-B4 display strong binding of WOW1 both centrally and within puncta at the spreading margin of cells (FIG. 2C). […]

[4] = tested on: MDA-MB-231 and MB-435 cells; experiment: Migration across coated filters (modified Boyden chamber), MDA-MB-231 and MB-435; format: cell-based, human; settings: S1ED pAb 250 μg/mL or GST-mS1ED 20 μM; 16 h
Method: (§1) FIGS. 5A-B—Sdc-1ED Inhibitors disrupt αvβ3 integrin-dependent cell migration on VN. MDA-MB-231, MDA-MB-435 and MCF-7 cells in plating medium alone (black-filled) or in plating medium containing either 20 μM GST-mS1ED (open) or 250 μg/mL polyclonal mS1ED antibodies (gray-filled) were seeded on polycarbonate filters coated with either 10 μg/ml of VN (FIG. 5A) or FN (FIG. 5B) in a modified Boyden chamber. After 16 h, cells that migrated through the filter in response to 10% FBS in the lower chamber were quantified by colorimetric staining.
(§2) To test the role of the S1ED in αvβ3 integrin dependent signaling in another functional assay, cells were examined for their ability to migrate across VN or FN-coated filters in the presence or absence of S1ED pAb (250 μg/mL) or GST-mS1ED recombinant protein (20 μM). Migration of treated MDA-MB-231 and MB-435 cells across VN is suppressed 2- to 4-fold relative to untreated controls (FIG. 5A). MCF-7 cell migration across VN, which is αvβ1 dependent, is unaffected by either treatment.

[5] = tested on: MCF-7 cells; experiment: Migration across coated filters (modified Boyden chamber), MCF-7; format: cell-based, human; settings: S1ED pAb 250 μg/mL or GST-mS1ED 20 μM; 16 h
Method: as §1, §2

αvβ3 integrin (human, on MDA-MB-231, MDA-MB-435, HAEC and HMEC cells) (human), sequence (P06756 31-1048, chain 1 of 2): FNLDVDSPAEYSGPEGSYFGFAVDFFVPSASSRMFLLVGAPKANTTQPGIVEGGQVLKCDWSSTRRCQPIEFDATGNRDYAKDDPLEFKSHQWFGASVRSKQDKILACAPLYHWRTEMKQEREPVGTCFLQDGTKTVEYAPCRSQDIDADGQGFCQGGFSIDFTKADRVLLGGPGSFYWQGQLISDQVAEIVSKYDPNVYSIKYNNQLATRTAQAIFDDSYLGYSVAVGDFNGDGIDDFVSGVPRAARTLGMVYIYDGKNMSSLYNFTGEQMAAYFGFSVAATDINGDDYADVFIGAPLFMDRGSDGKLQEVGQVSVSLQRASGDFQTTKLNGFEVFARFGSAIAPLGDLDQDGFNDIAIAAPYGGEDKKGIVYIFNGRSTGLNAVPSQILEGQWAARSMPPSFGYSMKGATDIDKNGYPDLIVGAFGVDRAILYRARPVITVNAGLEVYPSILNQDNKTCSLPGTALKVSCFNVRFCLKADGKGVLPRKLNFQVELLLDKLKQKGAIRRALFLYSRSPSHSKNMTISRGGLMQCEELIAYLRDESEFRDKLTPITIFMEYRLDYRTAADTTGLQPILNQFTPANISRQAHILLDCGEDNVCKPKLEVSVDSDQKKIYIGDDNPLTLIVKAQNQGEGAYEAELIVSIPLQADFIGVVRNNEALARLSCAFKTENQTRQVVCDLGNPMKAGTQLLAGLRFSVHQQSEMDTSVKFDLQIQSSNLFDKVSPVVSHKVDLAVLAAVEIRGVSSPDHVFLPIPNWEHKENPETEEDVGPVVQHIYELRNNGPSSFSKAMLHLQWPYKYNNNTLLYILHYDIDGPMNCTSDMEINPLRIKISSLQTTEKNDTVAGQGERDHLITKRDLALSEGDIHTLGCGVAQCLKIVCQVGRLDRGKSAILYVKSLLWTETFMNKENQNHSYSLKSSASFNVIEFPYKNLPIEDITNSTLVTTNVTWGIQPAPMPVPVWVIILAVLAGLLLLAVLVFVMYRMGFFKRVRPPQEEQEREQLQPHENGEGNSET
αvβ3 integrin (human, on MDA-MB-231, MDA-MB-435, HAEC and HMEC cells) (human), sequence (P05106 27-788, chain 2 of 2, further chain): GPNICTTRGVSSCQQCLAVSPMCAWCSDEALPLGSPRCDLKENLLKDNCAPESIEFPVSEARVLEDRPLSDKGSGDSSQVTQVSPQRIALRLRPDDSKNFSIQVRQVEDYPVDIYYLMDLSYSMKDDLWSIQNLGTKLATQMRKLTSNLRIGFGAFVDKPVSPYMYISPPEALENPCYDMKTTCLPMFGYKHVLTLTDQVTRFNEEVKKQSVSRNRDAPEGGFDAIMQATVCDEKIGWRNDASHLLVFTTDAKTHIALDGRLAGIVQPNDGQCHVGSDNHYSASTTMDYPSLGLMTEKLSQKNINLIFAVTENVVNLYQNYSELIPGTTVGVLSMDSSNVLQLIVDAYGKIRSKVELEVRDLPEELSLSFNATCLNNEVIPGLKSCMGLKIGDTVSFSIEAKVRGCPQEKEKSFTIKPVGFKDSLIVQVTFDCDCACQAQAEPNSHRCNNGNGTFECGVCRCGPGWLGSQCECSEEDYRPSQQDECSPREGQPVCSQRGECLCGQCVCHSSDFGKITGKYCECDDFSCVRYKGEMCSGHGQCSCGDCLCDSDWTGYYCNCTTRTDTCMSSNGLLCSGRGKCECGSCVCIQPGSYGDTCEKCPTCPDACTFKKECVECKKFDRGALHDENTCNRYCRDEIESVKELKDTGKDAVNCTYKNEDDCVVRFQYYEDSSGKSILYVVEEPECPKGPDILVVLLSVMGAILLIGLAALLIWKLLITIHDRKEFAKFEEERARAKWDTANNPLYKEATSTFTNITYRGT
T1 sequence (P06756 31-889 limits assumed): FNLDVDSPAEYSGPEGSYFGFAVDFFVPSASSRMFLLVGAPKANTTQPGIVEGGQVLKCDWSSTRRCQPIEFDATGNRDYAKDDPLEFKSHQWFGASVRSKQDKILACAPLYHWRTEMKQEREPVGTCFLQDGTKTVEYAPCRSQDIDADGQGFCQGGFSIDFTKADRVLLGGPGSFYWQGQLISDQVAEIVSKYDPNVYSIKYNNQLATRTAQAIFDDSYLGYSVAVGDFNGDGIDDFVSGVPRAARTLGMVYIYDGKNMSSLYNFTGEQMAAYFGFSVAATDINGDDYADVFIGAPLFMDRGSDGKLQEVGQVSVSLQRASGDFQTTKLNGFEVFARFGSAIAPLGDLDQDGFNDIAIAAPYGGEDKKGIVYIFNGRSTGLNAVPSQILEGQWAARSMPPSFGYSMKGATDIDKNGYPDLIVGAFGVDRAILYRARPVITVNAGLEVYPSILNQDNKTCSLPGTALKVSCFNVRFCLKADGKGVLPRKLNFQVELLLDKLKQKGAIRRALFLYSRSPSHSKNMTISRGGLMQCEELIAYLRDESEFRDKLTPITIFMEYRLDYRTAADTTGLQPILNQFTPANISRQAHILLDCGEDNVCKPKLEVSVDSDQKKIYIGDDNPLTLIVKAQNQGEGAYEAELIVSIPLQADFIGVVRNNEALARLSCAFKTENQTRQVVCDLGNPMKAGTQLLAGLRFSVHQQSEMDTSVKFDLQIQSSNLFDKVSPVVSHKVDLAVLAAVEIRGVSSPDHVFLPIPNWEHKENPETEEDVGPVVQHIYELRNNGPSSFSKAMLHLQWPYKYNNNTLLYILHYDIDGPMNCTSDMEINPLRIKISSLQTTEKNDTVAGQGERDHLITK
T1 sequence (P06756 891-1048 limits assumed): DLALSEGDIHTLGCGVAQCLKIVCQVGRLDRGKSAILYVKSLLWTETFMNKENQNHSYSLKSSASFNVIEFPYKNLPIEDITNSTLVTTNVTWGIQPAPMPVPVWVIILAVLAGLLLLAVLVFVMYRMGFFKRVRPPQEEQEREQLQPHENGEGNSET
T1 sequence (P05106 27-788): as the sequence (P05106 27-788, chain 2 of 2, further chain) above

migration of MDA-MB-231 and MB-435 cells across VN, 20 µM GST-mS1ED [2] [fold]	WOW1 binding (αvβ3 activation) [3]	Molecule	cell attachment and spreading on VN [1]	cell migration across FN [4]	cell migration across FN [5]	cell migration across VN [5]	lowest concentration tested at which competition occurs ([1]; cells plated on 5 μg/mL VN) [µM]
–	–	GST-mS4ED: recombinant GST fusion of mouse syndecan-4 ectodomain, specificity control (protein, left off: a dimerising Fc or GST, recombinant GST fusion of mouse syndecan-4 ectodomain, specificity control) ESIRETEVIDPQDLLEGRYFSGALPDDEDAGGSDDFELSGSGDLDDTEEPRPFPEVIEPLVPLDNHIPENAQPGIRVPSEPKELEENEVIPKRAPSDVGDDMSNKVSMSSTAQGSNIFERTE	without effect	–	–	–	–
2 to 4	WOW1 fails to bind	GST-mS1ED: recombinant mouse syndecan-1 ectodomain expressed as a fusion protein with GST (protein, left off: a dimerising Fc or GST, recombinant mouse syndecan-1 ectodomain expressed as a fusion protein with GST) QIVAVNVPPEDQDGSGDDSDNFSGSGTGALPDTLSRQTPSTWKDVWLLTATPTAPEPTSSNTETAFTSVLPAGEKPEEGEPVLHVEAEPGFTARDKEKEVTTRPRETVQLPITQRASTVRVTTAQAAVTSHPHGGMQPGLHETSAPTAPGQPDHQPPRVEGGGTSVIKEVVEDGTANQLPAGEGSGEQDFTFETSGENTAVAAVEPGLRNQPPVDEGATGASQSLLDRKEVLG	increasing blockade	neither inhibitor has any effect	neither inhibitor has any effect	unaffected	1
